# Test results taken from PMC5387307, “Diversification of the kinetic properties of yeast NADP‐glutamate‐dehydrogenase isozymes proceeds independently of their evolutionary origin” (MicrobiologyOpen, 2016).
# Like-named read-outs stand apart in the source and are kept apart here.
# B1: ScGdh3 (Saccharomyces cerevisiae S288C) (protein)
# chain: MTSEPEFQQAYDEIVSSVEDSKIFEKFPQYKKVLPIVSVPERIIQFRVTWENDNGEQEVAQGYRVQFNSAKGPYKGGLRFHPSVNLSILKFLGFEQIFKNALTGLDMGGGKGGLCVDLKGKSDNEIRRICYAFMRELSRHIGKDTDVPAGDIGVGGREIGYLFGAYRSYKNSWEGVLTGKGLNWGGSLIRPEATGFGLVYYTQAMIDYATNGKESFEGKRVTISGSGNVAQYAALKVIELGGIVVSLSDSKGCIISETGITSEQIHDIASAKIRFKSLEEIVDEYSTFSESKMKYVAGARPWTHVSNVDIALPCATQNEVSGDEAKALVASGVKFVAEGANMGSTPEAISVFETARSTATNAKDAVWFGPPKAANLGGVAVSGLEMAQNSQKVTWTAERVDQELKKIMINCFNDCIQAAQEYSTEKNTNTLPSLVKGANIASFVMVADAMLDQGDVF
# notes: full-length ORF in pET-28a(+), His-tagged, expressed in E. coli BL21, Ni-NTA purified; monomer 55 kD apparent; glutamate IC50: native enzyme in Scgdh1 deletion strain extract
# B2: ScGdh1 (Saccharomyces cerevisiae S288C) (protein)
# chain: SEPEFQQAYEEVVSSLEDSTLFEQHPEYRKVLPIVSVPERIIQFRVTWENDKGEQEVAQGYRVQYNSAKGPYKGGLRFHPSVNLSILKFLGFEQIFKNSLTGLDMGGGKGGLCVDLKGRSNNEIRRICYAFMRELSRHIGQDTDVPAGDIGVGGREIGYLFGAYRSYKNSWEGVLTGKGLNWGGSLIRPEATGYGLVYYTQAMIDYATNGKESFEGKRVTISGSGNVAQYAALKVIELGGTVVSLSDSKGCIISETGITSEQVADISSAKVNFKSLEQIVNEYSTFSENKVQYIAGARPWTHVQKVDIALPCATQNEVSGEEAKALVAQGVKFIAEGSNMGSTPEAIAVFETARSTATGPSEAVWYGPPKAANLGGVAVSGLEMAQNSQRITWTSERVDQELKRIMINCFNECIDYAKKYTKDGKVLPSLVKGANIASFIKVSDAMFDQGDVF
# notes: full-length ORF in pET-28a(+), His-tagged, expressed in E. coli BL21, Ni-NTA purified; monomer 53 kD apparent
# Columns and labels:
# [1] = test system: T1, LkGdh1; assay: NADPH absorbance at […] nm, reductive amination; type: biochemical, Lachancea kluyveri; settings: 100 mmol/L Tris pH 7.5, 30°C
# T1 construct: gene GDH1; full-length ORF in pET-28a(+), His-tagged, expressed in E. coli BL21, Ni-NTA purified; monomer 54 kD apparent; glutamate IC50: native enzyme in WT extract
# [2] = substrate: O=C(O)CCC(=O)C(=O)O; assay: purified protein; type: biochemical, Saccharomyces cerevisiae; settings: 250 μmol/L NADPH, 100 mmol/L ammonium chloride, 100 mmol/L Tris pH 7.5, 30°C
# [3] = substrate: NC(=O)C1=CN([C@@H]2O[C@H](COP(=O)(O)OP(=O)(O)OC[C@H]3O[C@@H](n4cnc5c(N)ncnc54)[C@H](OP(=O)(O)O)[C@@H]3O)[C@@H](O)[C@H]2O)C=CC1; assay: purified protein; type: biochemical, Saccharomyces cerevisiae; settings: 8 mmol/L α-KG, 100 mmol/L ammonium chloride, 100 mmol/L Tris pH 7.5, 30°C
# [4] = substrate: N; assay: purified protein; settings: 8 mmol/L α-KG, 250 μmol/L NADPH, 100 mmol/L Tris pH 7.5, 30°C
Molecule,Km [2] [µM],kcat [2] [s⁻¹],Km [3] [µM],kcat [3] [s⁻¹],Km [4] [µM],kcat [4] [s⁻¹],further results
N [NH4+],,,,,,,"Km ([1]; 8 mmol/L α-KG, 250 μmol/L NADPH, read-out: pH 7.5 / K m-NH4+): 7400 µM"
NC(=O)C1=CN([C@@H]2O[C@H](COP(=O)(O)OP(=O)(O)OC[C@H]3O[C@@H](n4cnc5c(N)ncnc54)[C@H](OP(=O)(O)O)[C@@H]3O)[C@@H](O)[C@H]2O)C=CC1 [NADPH],,,,,,,"Km ([1]; 8 mmol/L α-KG, 100 mmol/L ammonium chloride, read-out: pH 7.5 / K m-NADPH): 46 µM"
O=C(O)CCC(=O)C(=O)O [α-KG],,,,,,,"Km ([1]; 250 μmol/L NADPH, 100 mmol/L ammonium chloride, read-out: pH 7.5 / K m-α-KG): 460 µM"
B1,400,14,42,14,6900,14,
B2,370,13,45,13,8600,13,
